According to article PMC12535202, “N3A motifs in RIβ mediate allosteric crosstalk between cAMP and ATP in PKA activation” (Protein Science : A Publication of the Protein Society, 2025):

Target: the molecule itself
Test: non-reducing SDS-PAGE with Western blot; mouse tissue supernatants (70 μg), sample buffer without reducing agent, unboiled, 8% SDS-PAGE, blot probed with an RIβ-specific antibody

B1: RIβ from mouse brain tissue (natural protein, mouse (endogenous in mouse brain), UniProt P12849 1-381, looked up)
chain: MASPSCFHSEDEDSLKGCEMYVQKHGIQQVLKECIVHLCVAKPDRPLRFLREHFEKLEKEENRQILARQKSNSQCDSHDEEISPTPPNPVVKARRRRGGVSAEVYTEEDAVSYVRKVIPKDYKTMTALAKAISKNVLFSHLDDNERSDIFDAMFPVTHIGGETVIQQGNEGDNFYVIDQGEVDVYVNGEWVTNISEGGSFGELALIYGTPRAATVKAKTDLKLWGIDRDSYRRILMGSTLRKRKMYEEFLSKVSILESLEKWERLTVADALEPVQFEDGEKIVVQGEPGDDFYIITEGTASVLQRRSPNEEYVEVGRLGPSDYFGEIALLLNRPRAATVVARGPLKCVKLDRPRFERVLGPCSEILKRNIQRYNSFISLTV
modifications: disulfide bonded (dimer seen under non-reduced conditions)
notes: PKA regulatory subunit RIβ, endogenous in mouse brain, detected with an RIβ-specific antibody; source: endogenous, mouse brain homogenate (digitonin lysis buffer), supernatant
  stoichiometry N: 2
